Source: IntAct's records for PubMed 22212508

Tests used:
hdgr2_mouse Hdgfl2 = hdgr2_mouse Hdgfl2 (UniProt Q3UMU9)

Measured: effect of a mutation on the interaction

Chain of Hepatoma-derived growth factor (Mus musculus), P51859 S165A (P51859 whole entry S165A): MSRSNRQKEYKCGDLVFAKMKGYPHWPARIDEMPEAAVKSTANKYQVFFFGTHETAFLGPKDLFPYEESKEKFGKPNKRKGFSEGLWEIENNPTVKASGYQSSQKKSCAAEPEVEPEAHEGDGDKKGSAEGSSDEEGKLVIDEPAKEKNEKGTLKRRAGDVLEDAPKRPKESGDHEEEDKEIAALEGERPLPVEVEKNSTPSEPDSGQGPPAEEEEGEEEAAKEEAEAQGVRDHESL
Chain of hdgr2_mouse Hdgfl2 (Q3UMU9 whole entry): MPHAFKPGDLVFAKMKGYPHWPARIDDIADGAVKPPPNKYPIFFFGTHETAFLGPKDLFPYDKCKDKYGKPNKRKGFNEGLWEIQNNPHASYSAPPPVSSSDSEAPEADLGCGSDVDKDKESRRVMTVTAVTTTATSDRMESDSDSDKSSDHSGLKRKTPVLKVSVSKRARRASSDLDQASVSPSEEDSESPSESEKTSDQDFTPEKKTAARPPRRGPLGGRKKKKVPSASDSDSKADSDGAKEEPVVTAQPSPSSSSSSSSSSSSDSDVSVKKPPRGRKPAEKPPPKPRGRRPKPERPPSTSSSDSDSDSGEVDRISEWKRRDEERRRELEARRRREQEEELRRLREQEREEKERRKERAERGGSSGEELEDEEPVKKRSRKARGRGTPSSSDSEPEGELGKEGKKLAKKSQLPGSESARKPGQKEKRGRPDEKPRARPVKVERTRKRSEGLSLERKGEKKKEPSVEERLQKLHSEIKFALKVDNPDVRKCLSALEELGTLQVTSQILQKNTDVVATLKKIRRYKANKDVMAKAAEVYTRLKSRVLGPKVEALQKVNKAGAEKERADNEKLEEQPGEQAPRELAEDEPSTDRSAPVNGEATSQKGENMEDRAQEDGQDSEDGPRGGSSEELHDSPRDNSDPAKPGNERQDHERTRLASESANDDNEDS
Chain of q3umu9-1, Q3UMU9-1 (Q3UMU9 whole entry): as above
Chain of q3umu9-3, Q3UMU9-3 (Q3UMU9 other isoform, or with tags, fused parts or gaps): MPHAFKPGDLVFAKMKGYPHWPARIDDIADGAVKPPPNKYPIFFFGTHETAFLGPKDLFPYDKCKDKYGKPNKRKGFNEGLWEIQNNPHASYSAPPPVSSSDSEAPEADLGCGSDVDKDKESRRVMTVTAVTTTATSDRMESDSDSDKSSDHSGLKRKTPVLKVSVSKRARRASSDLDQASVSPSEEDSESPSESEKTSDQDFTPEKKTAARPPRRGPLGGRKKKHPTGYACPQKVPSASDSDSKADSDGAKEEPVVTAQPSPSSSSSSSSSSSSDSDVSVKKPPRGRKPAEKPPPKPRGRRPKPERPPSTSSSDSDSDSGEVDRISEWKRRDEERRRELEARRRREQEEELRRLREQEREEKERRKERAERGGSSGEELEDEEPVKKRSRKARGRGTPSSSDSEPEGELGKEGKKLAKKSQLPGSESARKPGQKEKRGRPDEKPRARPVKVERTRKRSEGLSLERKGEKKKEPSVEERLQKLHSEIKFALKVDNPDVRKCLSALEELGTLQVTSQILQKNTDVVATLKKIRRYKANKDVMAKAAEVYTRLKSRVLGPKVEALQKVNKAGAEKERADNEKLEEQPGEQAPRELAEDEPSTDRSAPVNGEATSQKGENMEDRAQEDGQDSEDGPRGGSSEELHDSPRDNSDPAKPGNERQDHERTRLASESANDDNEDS

Hepatoma-derived growth factor (Mus musculus), P51859 S165A
increasing interaction: hdgr2_mouse Hdgfl2 | q3umu9-3, Q3UMU9-3 | q3umu9-1, Q3UMU9-1
